This data set in a line: soluble on expression in E. coli; label from the status in PepcDB or PDB records.
Regarding “SNEVKESLRSIEQKYKLFQQQQFTFIAALEHCRENAHDKIRPISSIEQVQSYMEHYCNNSTHRRILIMFMDICSELSKLCQHFEALHSGTPVTNSLLEKCKTLVSQSNDLSSLRAKYPHEVVNHLSCDEARNHYGGVVSLIPIVLDFMKEWIAHSEKLPRKVLQHGTT”, the “soluble on expression in E. coli” value was “soluble”. Next, “MSLDLEDKQQKLEQAILGALDEVQVLNEDRILRRYLDLIKATLRTNFYQPDGNGQNKSYFSFKFNPKAIPELPRPVPKYEIFVYSPRVEGVHLRGGKVARGGLRWSDREEDFRTEVLGLVKAQQVKNAVIVPVGAKGGFVPRRLPLGGSRDEIQAEAIACYRIFISGLLDITDNLKEGEVVPPANVVRHDEDDPYLVVAADKGTATFSDIANGIAAEYGFWLGDAFASGGSAGYDHKGMGITAKGAWVSVQRHFRERGIDVQKDNISVIGIGDMAGDVFGNGLLMSDKLQLVAAFNHMHIFIDPNPDAASSFVERQRLFNLPRSSWADYDAKLISAGGGIFLRSAKSIAITPEMKARFDIQADRLAPTELIHALLKAPVDLLWNGGIGTYVKSSKETHADVGDKANDGLRVDGRELRAKVVGEGGNLGMTQLARVEFGLHGGANNTDFIDNAGGVDCSDHEVNIKILLNEVVQAGDMTEKQRNALLVKMTDAVGALVLGNNYKQTQALSLAQRRARERIAEYKRLMGDLEARGKLDRALEFLPSDEELAERISAGEGHHHHHH”: “not soluble”.

As for “AIAAAPIESLLNEICESEDPIEELKSLRTAVLATPVSGLRPAVSGARLEIIFSLLNTNDKEQIEVCVEILSRVLQALEPVQLAQNYRTALQSGLNHPDDSVKVLTLTQIGRVAGHTEGVTQMLNNVEILHDVIQCISVERIAVAKEAIAALSKLSNTKAGLDALFRSDLLNKLKDVMLTSDIIRYRVYELIVEVSTVSPVSLGYCANSGLISQMLEELTGDDVLVRATAIEMVTNLAQSQHGRQYLAQQGIMDKISSVQKIFGAHNYLKLKTYLNEGSYYVTAVSAVTTEGAD”, the “soluble on expression in E. coli” value was “soluble”. To “ENENRVEALEVRLAFQDELLDALNATVARQQKEIDLLQQQIRLLYQQFRNAQPDDAPGGSLRDDIPPHY” belongs “soluble”. To “MQMCFSKSAQHHSKVKQRNSLLEIMENCFEMMVARCIKIGTVQTLTMLGLLPEVVTISQAEDIYGKRLITEWREKAWIKFYPANNKERGKYYVKRSELETASAMMDLHNKVPDNIIKQLMQLTV” belongs “not soluble”; to “MSLAAPVHAAPLAATASKFLGCAYGAQQAPGFAQYWNKLTPENGGKWGSVEAVRDQMDWSTLDAAYRFAQANQMPFQMHVMVWGNQQPEWIKTLRPAEQRREIEQWFAAVAQRYPDIALLEVVNEPLNDPPSKADTGGGNYLQALGGNGDSGWEWVLQSFRLARRHFPHTKLMINDYSITSSAQATQKYLQIVRLLQRENLVDAIGVQEHAFETTPEVAVSVHRDNLDALAATGLPIYITEFDLDGPTDAQQLADYKRVFPVFWEHPAVHGITLWGFRPGLWRDKEAAYLIRADGTERPALTWLRDYVAAHPGTEGHHHHHH”, “soluble”; to “MSSTAVQPPPPVPPPPPSAVPSAGKGIHSKLYNGMIGAADKFVPAKLRPLWMHPAGPKTIFFWAPVFKWGLVAAGLSDLARPADTISVSGCAALAATGIIWSRYSLVIIPKNYSLFAVNLFVGITQVVQLARAYHYHQSQEKLKQEQQQPAVQNLEHHHHHH”, “not soluble”. In the case of “MSFEAFTELYIRDVKNRLKENTWLTKEHIIRTKILPFFGKLKISEISTKEIITWQNEMLAYRDEKKKPYSQTYLKTLHNQLSAIFNHAVRYYELRSNPAAKVGNMGSELEHHHHHH”, the “soluble on expression in E. coli” value is reported as “not soluble”.

Consider “MKANANAFYAINGNSVIDFKESSKAKDVCEFLGRIKEENEYDPIVVLDNSKTHHADITIKKAKQLDITLVFLPPYSPDLNPIEFIWKSVRKEILKEFIESVTQLRDLIKNEYMKLAKSKSFANNWMKIFDEQIKSVMNSLEHHHHHH”, for which the “soluble on expression in E. coli” value is “not soluble”.

Turning to “GAMSSIFINREYLLPDYIPDELPHREDQIRKIASILAPLYREEKPNNIFIYGLTGTGKTAVVKFVLSKLHKKFLGKFKHVYINTRQIDTPYRVLADLLESLDVKVPFTGLSIAELYRRLVKAVRDYGSQVVIVLDEIDAFVKKYNDDILYKLSRINSEVNKSKISFIGITNDVKFVDLLDPRVKSSLSEEEIIFPPYNAEELEDILTKRAQMAFKPGVLPDNVIKLCAALAAREHGDARRALDLLRVSGEIAERMKDTKVKEEYVYMAKEEIERDRVRDIILTLPFHSKLVLMAVVSISSEENVVSTTGAVYETYLNICKKLGVEAVTQRRVSDIINELDMVGILTAKVVNRGRYGKTKEIGLAVDKNIIVRSLIESDSRFADLWS”, the “soluble on expression in E. coli” value is reported as “soluble”.

For “MCMPRYTQPKKTWFYPVNFKIKAVELSLRNDMLSKDVAQALDIHPLMLSRWRKEYREGKFKKNQHYQSNSELMSKIPTKKELNKIKQLQKENDRLKMENDLLKKWQRYLAEVHQSDLDSSKNTKKPLEHHHHHH”, the “soluble on expression in E. coli” value is reported as “soluble”. To “MGSDKIHHHHHHMIKALNIVTKTGTELQGALFKAAHATTVLIAITGVHGNFYSNPFYVNIGKTLMAAGIDFIYAQTRDAFNQVVSLNHLTGKKELVGSWSEQFDDANEDIAAYLSYAEENQYQHIILGGHSLGANKVIYYLANHADVNVTKFLLLSPANLKRLTDMVSLSERNIIQKQIAAGNSNQLLPFELFGWLPCTAKTADQWLNSGILDNVHSDLRADFSQIERIRLSGAMVIGTLDTFTYGDPIKYLKTINAHFLSHAENDLVFIQKTGHTYQNKDQKLANEILKLIKNWSLGGN” belongs “not soluble”. Next, “MGSDKIHHHHHHMQSSSTLFPVALLSAERRGDLSEDVYRIKAGNGPDPSVELAITRLGLADQAQAQGVPVILLHGSFSNRRFWYSPKGVGLGAYLARAGFDVWIPEMRGHGLSPRNHDWKHNSVAAYARDDLPLINAFVREQSGQAPHWVGHSLGGTTLVAALGGGFLAAEQLASVALFGTQISRVYWPLKVPPLAWGAKLVLKRWGQISGPRFKRGPEDEPIGLALESMRWHGLFGRFGDKQNDWWAGLAEVDVPLLAVAGAGDFQDPVWACRKLFEQLGGERKQFLRLGREEGFEAFGHVDMLVSKAAQVQVWPLVERWLHNPLLPVHASTVVAEPVPAS”: “not soluble”; “MGSDKIHHHHHHMRKAERLNDMMLFLNDKNSFQLSDIMAKYGVSRSTAIRDIQSLEEIGMPIYSERGRNGHYRVLRNRLLSPIVFNIDEVFALYFSMLTLKAYETTPFHLSVEKLKTKFERCLSAEKIEMLRKIEEVFSLGYIKHNNQCEFLDVILQFTMEEKVCQINYDNNGTEKTYIVQFYNISSAYGQWYVTSYNFETKRMQVFRCDKILALKENDTFEAKKMEELKGVADSFNKKADVTTFEVEIASNGVDLFFKENYPSMKLRQQEGRNCIHGFYHKGEERFIINYLLGYGEKIIAIQPDSLRDMLLNELDTIKKHMQNLSS”: “not soluble”. To “MDVRQSIHSEHAKTLDTQALRREFLIENIFVADEYTMVYSHIDRIIVGGIMPVSHPVEIGGEVGKQLGVSRLLDRRELGVINIGGAGAIIVDGQRHDIGHRDALYIGKGAKELVFVSNEASRPAKFYYNCAPAHTAYPTKKVSPADVAPVTLGDNLTSNRRTINKYFVPDVLETCQLSMGLTELAPGNLWNTMPCHTHERRMEVYLYFNMEEDSCVFHMMGQPQETRHIVMRNEQAVISPSWSIHSGVGTKAYTFVWGMVGENQVFDDMDHVAVQDLR” belongs “not soluble”; to “STLQFKVGPPFELVRDYCPVVESHTGRTLDLRIIPRIDRGFDHIDEEWVGYKRNYFTLVSTFETANCDLDTFLKSSFDLLVEDSSVESRLRVQYFAIKIKAKNDDDDTEINLVQHTAKRDKGPQFCPSVCPLVPSPLPKHQIIREASNVRNITKTKKYDSTFYLHRNHVNYEEYGVDSLLFSYPEDSIQKVARYERVQFASSISVKKPFQQNKHFSLHVILGAVVDPDTFHGENPGIPYDELALKNGSKGMFVYLQEMKTPPLIIRGRSPSN”, “soluble”.

Regarding “MAHHHHHHMSIYCRLASPPVFLRALHTVSVSRDGWATVVFTDSHVVLHVEGTDENMTATCTLPKNLFAEYAVVETRFALHIPTLIDALLMLG”, the “soluble on expression in E. coli” value is listed as “not soluble”.

As to “MATAETSVLIGYLSDYGYSDRLSQAIGRGLVKTGVAVEMVDLRAVDPQELIEAVSSARGIVLGTPPSQPSEAVATALSTIFAAAHNKQAIGLFDSYGGDDEPIDALLAQFRNLGLHTAFPPIRVKDQPTEAIYQQCEESGTDLGQWLTRADAIQTMKSLEHHHHHH”, the “soluble on expression in E. coli” value is listed as “not soluble”.

As for “MGSDKIHHHHHHMSLQSGEWREQIDEVDAALIDEFQSDFPIQERPFEAVGDALGVSAGTALDRVKTLRDDGIFRRFGPVLNPPVIGSSTLAAVSAPEDRFDEVAEIINGYRQVNHNYARDHEWNMWFVVTAGSRQRRDEILAEIEERTGCSVLVLPMLTDYYIDLEFPVVNGDRFARESLETTDATATRISEDAAADLSELDRRLLLEIQSGFPLVATPYRDVADAVDADVSEVLSAIKRLQRTGCIKRIGCVVNHIVTGFDNNCMVVWDVPDDALDERGQAVGELPYVTLCYHRPRRPEQDWQYNLFTMIHGREADIVDEKIDELATDHLPYDHGRLYSTETLKQTGARYDDIVGQ”, the “soluble on expression in E. coli” value is given as “not soluble”.

On to “NVPVGMSIGVYDYELSDYAERMDAISGGAIRSSFARNGGIGFDIGASLQIGYMIKFTDSIGLSILAEAGYSHDTYSYISRLDKNNSYSYSFESLQLGVIPKFNIKNFAIGIGGGVKIPLAGNIHTKTSLFESNTKLTSDDIKRLYEKALMPYIKVTFDYSIFFTQKTAFNIGLYLGYDFGLEPNIYTVDGAIDGNRLVVDEVSYSSFDVGLQVGLKFGPSTK”, for which the “soluble on expression in E. coli” value is on record as “not soluble”. As for “SLTNITQCKNRRCGGELGDFTGYIESPNYPGNYPANTECTWTINPPPKRRILIVVPEIFLPIEDDCGDYLVMRKTSSSNSVTTYETCQTYERPIAFTSRSKKLWIQFKSNEGNSARGFQVPYVTYDEDYQELIEDIVRDGRLYASENHQEILKDKKLIKALFDVLAHPQNYFKYTAQESREMFPRSFIRLLRSKVSRFLRPYK”, the “soluble on expression in E. coli” value is reported as “soluble”. For “MGSDKIHHHHHHMDVWKVLGRYSNVLVLSKKNSILILEINGKAPKPGESVRVWNNRVMTGKELKAKLLAHFDEELSLKVLKVPGLLEFLHDISRGFDKKYVHFVKLFVKHLVPSRFLKMNNEEKKIIMKSFPEVFESGPSSVRIRFSVKSFFEYVQKNFPINRNINEEALRRTVTLKRPILSTEEYDVYQMNEPLSKGFAGKNYMALPLSGKYLIVVFRRRNFPFVEFKLKEEPDLTFFEDFVNDKVAVEKRENGWVLIWKDREMMEFELPDKELLPRPEKLVDDDLLDAVFLLNSLLEENVRFASMPSFGVQEMWWEKDNNRVILVVNTVRFGRVVADVILEGRSLSVRFYAEKNSEELSAHSEELQKEFERLGLIAHVFFLRKDPMNWEGFNAYG”, the “soluble on expression in E. coli” value is “not soluble”. On to “MQPMTARFDLFVVGSGFFGLTIAERVATQLDKRVLVLERRPHIGGNAYSEAEPQTGIEVHKYGAHLFHTSNKRVWDYVRQFTDFTDYRHRVFAMHNGQAYQFPMGLGLVSQFFGKYFTPEQARQLIAEQAAEIDTADAQNLEEKAISLIGRPLYEAFVKGYTAKQWQTDPKELPAANITRLPVRYTFDNRYFSDTYEGLPTDGYTAWLQNMAADHRIEVRLNTDWFDVRGQLRPGSPAAPVVYTGPLDRYFDYAEGRLGWRTLDFEVEVLPIGDFQGTAVMNYNDLDVPYTRIHEFRHFHPERDYPTDKTVIMREYSRFAEDDDEPYYPINTEADRALLATYRARAKSETASSKVLFGGRLGTYQYLDMHMAIASALNMYDNVLAPHLRDGVPLLQDGA”, for which the “soluble on expression in E. coli” value was “soluble”.

The record behind these values is the DeepSol protein solubility set.
